Assay results published in patent US12168773B2, “Engineered phosphoenolpyruvate carboxylase enzymes” (The Regents of the University of California, priority 2019, dated 2024).

Assays:
[1] = test system: Zea mays PPC1 (ZmPPC1, C4 PEPC); test: malate dehydrogenase coupled PEPC enzymatic assay, maize C4 PPC1 and engineered variants; type: biochemical
Excerpt: (§1) For both Arabidopsis C3 PPC1 (AtPPC1) and maize C4 PPC1 (ZmPPC1), the entire coding sequence for each was cloned into pET22b, which contains an amino-terminal 6×-HIS tag for protein purification, and expression was driven by the T7 promoter and lac operon. Relevant mutations were introduced by the Stratagene QuikChange mutagenesis kit using PCR amplification. Both wild type and mutant cDNA constructs were sequenced entirely following cloning into pet22b. Proteins were produced by growing transformed E. coli (BL21 CodonPlus) in autoinduction medium at 18° C. for 16 hours. Proteins were isolated by sonication of bacterial cells followed by passage over a nickel sepharose affinity column, elution with imidazole and separation on a GE SUPERDEX HILOAD 200 PG 16/60 all using an AKTA FPLC.
(§2) Enzyme analysis was conducted in vitro using protein that was generated by expression in E. coli using the pET22b vector. For expression, pET22b constructs were transformed into E. coli BL21-DE3 codon plus RIL cells and grown at 37° C. in autoinduction media until reaching an OD=1 after which these were transferred to 18° C. for 18 hours. Samples were collected and lysed by sonication. Protein was purified by passage through a His-trap nickel affinity column on an Akta FPLC and then eluted with 400 mM imidazole. Partially purified protein was then separated on an FPLC equipped with a HiPrep S200 size exclusion column (16/60) after which collected sample was concentrated by centrifugation to a final concentration of 4 mg/ml in 50% glycerol. Samples were stored at −20° C.
(§3) For enzymatic assays, a malate dehydrogenase coupled reaction was conducted with a range of substrate concentrations (0-7.5 mM phosphoenolpyruvate pyruvate) and a range of concentrations of allosteric inhibitor (0-50 mM malate). Assays were monitored using a Victor2 microplate reader at 25° C. Reactions consisted of […] PPC enzyme variants, 50 mM HEPES pH7.5, 10 mM MgCl2, 10 mM KHCO3 (carbonate substrate), 0.2 mM NADH, and 10 units/ml of malate dehydrogenase. Reaction time was 15 minutes and samples were measured on an ˜40 second interval. For measurement, which monitors loss of NADH, excitation wavelength was 340 nM and emission wavelength was 460 nM.

[2] = target: T1, Zea mays PPC1 (ZmPPC1, C4 PEPC) (Zea mays, UniProt P04711, A655V); test: as above; type: biochemical; details: Kcat/Km
T1 construct: 6xHis (N); made in house; host or cells: E. coli BL21 CodonPlus (pET22b)
T1 sequence (P04711 whole entry A655V): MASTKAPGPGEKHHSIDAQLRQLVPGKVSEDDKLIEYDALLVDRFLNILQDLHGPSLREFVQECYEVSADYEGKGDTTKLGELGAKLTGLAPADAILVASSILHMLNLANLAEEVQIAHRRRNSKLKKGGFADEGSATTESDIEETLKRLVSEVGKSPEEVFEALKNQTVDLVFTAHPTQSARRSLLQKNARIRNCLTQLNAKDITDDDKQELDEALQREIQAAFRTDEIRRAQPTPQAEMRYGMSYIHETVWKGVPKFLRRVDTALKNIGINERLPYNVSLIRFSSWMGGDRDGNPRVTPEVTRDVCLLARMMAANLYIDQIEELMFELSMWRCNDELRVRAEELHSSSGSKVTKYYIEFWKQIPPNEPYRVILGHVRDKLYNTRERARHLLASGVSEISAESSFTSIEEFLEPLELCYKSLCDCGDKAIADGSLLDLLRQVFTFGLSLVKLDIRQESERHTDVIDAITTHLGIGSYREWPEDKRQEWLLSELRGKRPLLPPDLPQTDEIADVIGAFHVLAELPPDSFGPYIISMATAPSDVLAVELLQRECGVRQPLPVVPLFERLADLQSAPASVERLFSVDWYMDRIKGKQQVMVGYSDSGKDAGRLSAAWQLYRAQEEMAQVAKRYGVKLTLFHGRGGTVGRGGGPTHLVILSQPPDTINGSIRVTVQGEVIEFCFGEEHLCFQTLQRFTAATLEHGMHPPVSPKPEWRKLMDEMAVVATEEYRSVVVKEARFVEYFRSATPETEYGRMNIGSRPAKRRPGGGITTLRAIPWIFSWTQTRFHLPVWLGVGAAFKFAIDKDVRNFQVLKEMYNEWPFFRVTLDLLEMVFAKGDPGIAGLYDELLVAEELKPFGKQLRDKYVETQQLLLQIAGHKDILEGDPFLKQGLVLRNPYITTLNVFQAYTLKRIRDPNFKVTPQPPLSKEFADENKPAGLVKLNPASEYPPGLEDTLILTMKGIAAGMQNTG
Excerpt: as §1, §2, §3

B1: ZmPPC1 A651V: engineered Zea mays PPC1 with A651V substitution (A655V in SEQ ID NO:15) (protein)
chain: MASTKAPGPGEKHHSIDAQLRQLVPGKVSEDDKLIEYDALLVDRFLNILQDLHGPSLREFVQECYEVSADYEGKGDTTKLGELGAKLTGLAPADAILVASSILHMLNLANLAEEVQIAHRRRNSKLKKGGFADEGSATTESDIEETLKRLVSEVGKSPEEVFEALKNQTVDLVFTAHPTQSARRSLLQKNARIRNCLTQLNAKDITDDDKQELDEALQREIQAAFRTDEIRRAQPTPQDEMRYGMSYIHETVWKGVPKFLRRVDTALKNIGINERLPYNVSLIRFSSWMGGDRDGNPRVTPEVTRDVCLLARMMAANLYIDQIEELMFELSMWRCNDELRVRAEELHSSSGSKVTKYYIEFWKQIPPNEPYRVILGHVRDKLYNTRERARHLLASGVSEISAESSFTSIEEFLEPLELCYKSLCDCGDKAIADGSLLDLLRQVFTFGLSLVKLDIRQESERHTDVIDAITTHLGIGSYREWPEDKRQEWLLSELRGKRPLLPPDLPQTDEIADVIGAFHVLAELPPDSFGPYIISMATAPSDVLAVELLQRECGVRQPLPVVPLFERLADLQSAPASVERLFSVDWYMDRIKGKQQVMVGYSDSGKDAGRLSAAWQLYRAQEEMAQVAKRYGVKLTLFHGRGGTVGRGGGPTHLVILSQPPDTINGSIRVTVQGEVIEFCFGEEHLCFQTLQRFTAATLEHGMHPPVSPKPEWRKLMDEMAVVATEEYRSVVVKEARFVEYFRSATPETEYGRMNIGSRPAKRRPGGGITTLRAIPWIFSWTQTRFHLPVWLGVGAAFKFAIDKDVRNFQVLKEMYNEWPFFRVTLDLLEMVFAKGDPGIAGLYDELLVAEELKPFGKQLRDKYVETQQLLLQIAGHKDILEGDPFLKQGLVLRNPYITTLNVFQAYTLKRIRDPNFKVTPQPPLSKEFADENKPAGLVKLNPASEYPPGLEDTLILTMKGIAAGMQNTG
Q: What does the source list for B1?
A: effects of the allosteric inhibitor malate relative to wt ZmPPC1 [1]: greatly reduce; Km ([1]; 0-7.5 mM phosphoenolpyruvate, 25° C, HEPES pH7.5, read-out: Km PEP): 477 ± 42 µM; Vmax ([1]; 25° C, HEPES pH7.5): 12.84 ± 0.89 units/mg; effect of malate on enzyme ([1]; at 50 mM malate): wholly unaffected; activity of C4 PEPC ([1]; substitution introduced into maize C4 PEPC (ZmPPC1)): increased activity; increase in catalytic efficiency relative to wt ZmPPC1 [2]: > 7 fold
